Assay results taken from the supplement of paper PMC7877785.
± gives the uncertainty stated by the source.

Assay: self-splicing fitness, log relative to wild type (ln ratio); higher = more splicing; Tetrahymena group I intron in knt gene, E. coli kanamycin selection, DiMSum; sequences stand for … in CUCUCU…GGAGGGAAAAGUUAUCAGGCAUGCACCUGGUAGCUAGUCUUUAAACCAAUAGAUUGCAUCGGUUUAAAAGGCAAGACCGUCAAAUUGCGGGAAAGGGGUCAACAGCCGUUCAGUACCAAGUCUCAGGGGAAACUUUGAGAUGGCCUUGCAAAGGGUAUGGUAAUAAGCUGACGGACAUGGUCCUAACCACGCAGCCAAGUCCUAAGUCAACAGAUCUUCUGUUGAUAUGGAUGCAGUUCACAGACUAAAUGUCGGUCGGGGAAGAUGUAUUCUUCUCAUAAGAUAUAGUCGGACCUCUCCUUAAUGGGAGCUAGCGGAUGAAGUGAUGCAACACUGGAGCCGCUGGGAACUAAUUUGUAUGCGAAAGUAUAUUGAUUAGUUUUGGAGUACUCGUGGUCG
How it was run: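 DiMSum derived fitness as the error-weighted combination of fold changes across replicates, kanamycin versus no kanamycin, normalised to wild type. E. coli BL21(DE3) held the library, which randomised all eight P1ex-region intron nucleotides within the knt kanamycin-resistance gene on pET-22b(+). Six replicate transformations grew overnight at 37°C or 30°C on LB agar with or without 25 μg/mL kanamycin, also containing 100 μg/mL carbenicillin, 50 μM IPTG and 0.2% rhamnose, and pooled colonies were amplicon-sequenced on an Illumina HiSeq 2500.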

Sequence	self-splicing fitness (ln) (30 °C)	self-splicing fitness (ln) (37 °C)
CAUAAGCAAUAUUACGAUGC	-3.14 ± 0.19	-2.34 ± 0.28
GACGAGCAAUAUUACGCGUU	-3.74 ± 0.23	-2.88 ± 0.25
ACAUAGCAAUAUUACGCCGG	-0.986 ± 0.14	0.077 ± 0.21
UUCUAGCAAUAUUACGCUUU	-3.89 ± 0.26	-1.82 ± 0.22
CGGCAGCAAUAUUACGGGCG	-1.85 ± 0.13	-0.898 ± 0.14
AUGGAGCAAUAUUACGUGCG	-3.44 ± 0.32	-1.8 ± 0.23
GAUAAGCAAUAUUACGCCUA	-0.016 ± 0.19	-0.316 ± 0.19
AUGGAGCAAUAUUACGCAAG	-4.55 ± 0.42	-1.09 ± 0.31
UUGCAGCAAUAUUACGAUUC	-3.53 ± 0.38	-1.71 ± 0.19
UUCCAGCAAUAUUACGACAU	-2.874 ± 0.018	-1.61 ± 0.035
AUCUAGCAAUAUUACGACGG	-2.58 ± 0.33	-2.23 ± 0.42
CCUCAGCAAUAUUACGAUGA	-2.63 ± 0.21	-2.8 ± 0.28
GCUCAGCAAUAUUACGUUUA	-1.44 ± 0.09	-0.861 ± 0.083
UUCAAGCAAUAUUACGACAA	0.0996 ± 0.083	-0.304 ± 0.085
CUUCAGCAAUAUUACGUUUA	-3.96 ± 0.3	-2.49 ± 0.23
CGAAAGCAAUAUUACGUUUC	-3.81 ± 0.2	-2.15 ± 0.16
UUGAAGCAAUAUUACGGGAG	-1.2 ± 0.1	-0.884 ± 0.12
AUACAGCAAUAUUACGCAAA	-2.45 ± 0.21	-1.07 ± 0.18
CUAAAGCAAUAUUACGUAAU	-4.33 ± 0.29	-2.54 ± 0.23

Sequence	self-splicing fitness (ln) (30 °C)	self-splicing fitness (ln) (37 °C)
GCAGAGCAAUAUUACGGGUC	-3.78 ± 0.47	-2.29 ± 0.24
GACAAGCAAUAUUACGGGCG	-1.27 ± 0.061	-0.455 ± 0.072
UAAGAGCAAUAUUACGAGUA	-2.94 ± 0.19	-2.66 ± 0.21
CAAGAGCAAUAUUACGACGU	-2.88 ± 0.23	
AUACAGCAAUAUUACGCACC	-1.21 ± 0.086	-1.05 ± 0.1
UGCGAGCAAUAUUACGUCCU	-2.35 ± 0.14	-0.627 ± 0.15
GGGUAGCAAUAUUACGGCCG	-0.902 ± 0.086	-0.295 ± 0.15
AGGUAGCAAUAUUACGAUGU	-0.919 ± 0.013	-0.474 ± 0.033
GUCCAGCAAUAUUACGAGUU	-1.98 ± 0.095	-1.26 ± 0.091
CCCAAGCAAUAUUACGUGAC	-3.91 ± 0.25	-2.03 ± 0.19
AAUCAGCAAUAUUACGCCAA	-1.61 ± 0.14	-0.855 ± 0.15
CCGCAGCAAUAUUACGUGAA	-4.45 ± 0.21	-1.88 ± 0.16
GGAUAGCAAUAUUACGUAGA	-1.01 ± 0.17	-1.4 ± 0.21
CAUGAGCAAUAUUACGCCAA	-3.67 ± 0.41	-2.53 ± 0.36
UUUCAGCAAUAUUACGCUGA	-3.32 ± 0.47	-2.24 ± 0.42
CUUUAGCAAUAUUACGAUUC	-3.16 ± 0.2	-2.6 ± 0.33
CUCGAGCAAUAUUACGUACU	-2.68 ± 0.2	-3.11 ± 0.33
GUAAAGCAAUAUUACGCCCC	-0.801 ± 0.089	-0.0225 ± 0.12
